Molecular target: T1, S6N, N-terminal fragment of Surfeit locus protein 6 (SURF6), residues 1-182 (human, UniProt O75683 1-182)
T1 construct: Surfeit locus protein 6 (SURF6), human, 361 amino acids; N-terminal construct of residues 1-182 with R-motifs R1 and R2; In imaging experiments 10% was labelled with Alexa Fluor 647 at Cys19; also called SURF6 N-terminal construct; source: E. coli BL21 Rosetta 2 (DE3), purified from inclusion bodies (Ni-NTA under denaturing conditions, TEV cleavage, C4 HPLC)
T1 sequence (looked up): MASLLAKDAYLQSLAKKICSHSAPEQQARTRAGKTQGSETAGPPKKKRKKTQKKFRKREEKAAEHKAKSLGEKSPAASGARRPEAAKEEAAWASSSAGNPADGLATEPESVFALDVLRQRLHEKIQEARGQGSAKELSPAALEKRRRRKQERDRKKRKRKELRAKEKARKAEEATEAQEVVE
Assay: not stated; method and conditions not shown in the main text (Supplementary Fig. 13)
Settings: both partners purified

Kd: 350 nM
B1: IDR of NPM1 (domain or fragment, UniProt P06748 120-240, looked up)
chain: EEDAESEDEEEEDVKLLSISGKRSAPGGGSKVPQKKVKLAADEDDDDDDEEDDDEDDDDDDFDDEEAEEKAPVKKSIRDTPAKNAQKSNQNGKDSKPSSTPRSKGQESFKKQEKTPKTPKG
notes: Nucleophosmin (NPM1), central intrinsically disordered region; also called NPM1-IDR
